Experimental data published in paper PMC11548252.
Read-outs that look alike come from different tables or passages of the source.

Columns and labels:
[1] = target: SARS-CoV-2 Spike protein (SARS-CoV-2) (UniProt P0DTC2); assay: ligand-responsive LAMP, colorimetric (indirect); conditions: 5'-phosphate
[2] = target: SARS-CoV-2 Spike protein (SARS-CoV-2) (UniProt P0DTC2); assay: fluorescence dequenching (Cy5/BHQ2)
[3] = target: SARS-CoV-2 Spike protein (SARS-CoV-2) (UniProt P0DTC2); assay: fluorescence dequenching (Cy5/BHQ2); remark: listed apart in the source

With “CAGCACCGACCTTGTGCTTTGGGAGTGCTGGTCCAAGGGCGTTAATGGAC [EY615]” as the sequence, how does the binding (% increase of Abs430/Abs560) [1] read?
The binding (% increase of Abs430/Abs560) was 81.

With “CAGCACCGACCTTGTGCTTTGGGAGTGCTGGTCCAAGGGCGTTAATGGAC [EY615QF]” as the sequence, how does the binding (% fluorescence increase) [2] read?
The binding (% fluorescence increase) was 31.

And the binding (% fluorescence increase) [3]?
The binding (% fluorescence increase) was 46.
